Measured values: PMC4739419, “Mutations in the nucleotide binding and hydrolysis domains of Helicobacter pylori MutS2 lead to altered biochemical activities and inactivation of its in vivo function” (BMC Microbiology, 2016)
Changes are numbered by the printed parent chain. Names and notes keep the numbering of the source.

B1: HpMutS2-E413A (enzyme)
chain: MSDAPKRSLNPTLMMNNNNTPPKPLEESLDLKEFIALFKTFFAKERDTIALENDLKQTFTYLNEVDAIGLPTPKSVKESDLIIIKLTKLGTLHLDEIFEIVKRLHYIVVLQNAFKTFTHLKFHERLNAIVLPPFFNDLIALFDDEGKIKQGANATLDALNESLNRLKKESVKIIHHYARSKELAPYLVDTQSHLKHGYECLLLKSGFSGAIKGVVLERSANGYFYLLPESAQKIAQKIAQIGNEIDCCIVEMCQTLSHSLQKHLLFLKFLFKEFDFLDSLQARLNFAKAYNLEFVMPSFTQKKMILENFSHPILKEPKPLNLKFEKSMLAVTGVNAGGKTMLLKSLLSAAFLSKHLIPMKINAHHSIIPYFKEIHAIINDPQNSANNISTFAGRMKQFSALLSKENMLLGVDAIELGTDADEASSLYKTLLEKLLKQNNQIIITTHHKRLSVLMAENKEVELLAALYDEEKERPTYTFLKGVIGKSYAFETALRYGVPHFLIEKAKTFYGEDKEKLNVLIENSSALERELKQKNEHLENALKEQEYLKNAWLLEMEKQKEIFHNKKLELEKSYQQALNILKSEVASKDTSSMHKEIHKASEILSKHKTNQEIPQIITNFQANEKARYKNESVLIVQILDKGYYWIETELGMRLKAHGSLLKKIQKPPKNKFKPPKTTIPKPKEASLRLDLRGQRSEEALDLLDAFLNDALLGGFEEVLICHGKGSGILEKFVKEFLKNHPKVVSFSDAPINLGGSGVKIVKL
notes: also called Walker-B mutant
B2: HpMutS2: Helicobacter pylori MutS2 (1-762), C-terminally His6-tagged wild-type protein, nuclease and ABC ATPase (protein)
chain: B1 chain with A413E
modifications: left off: His6, C-terminal, state not stated
notes: Helicobacter pylori MutS2 (1-762), C-terminally His6-tagged wild-type protein, nuclease and ABC ATPase
B3: HpMutS2-G338R (protein)
chain: B1 chain with G338R, A413E

Assays:
chymotrypsin = assay: Limited proteolysis with chymotrypsin; conditions: 37 °C; for effect of nucleotide pre-incubation on proteolysis: pre-incubation with ADP, ATP or ATPγS 1 mM, 15 min; for susceptibility to proteolysis compared to the wild-type protein: protein 4 μM, chymotrypsin 1.25 ng, 30 min, no nucleotide
Method: (§1) Fig. 4 Nucleotide and mutation induced conformational changes in HpMutS2. a Limited proteolysis. Proteins (4 μM) either free or pre-incubated with nucleotides (1 mM) were incubated with chymotrypsin (1.25 ng) for 30 min at 37 °C. All proteolysis reactions were performed in 1X buffer A lacking magnesium. Reactions were stopped by adding a protease inhibitor cocktail and the products were separated on SDS-PAGE (10 %). Lane M: Molecular weight marker. b Thermal stability profiles of wild-type HpMutS2, HpMutS2-G338R, and HpMutS2-E413A. Proteins (1 μM) dialyzed in 50 mM Tris-Cl and 100 mM NaCl were subjected to thermal denaturation and spectra were recorded at 222 nm using Jasco-815 spectropolarimeter
HpMutS2 (4 μM) was incubated with chymotrypsin (1.25 ng) or in buffer A lacking magnesium at 37 °C for 30 min. The reactions were stopped by addition of protease inhibitor cocktail (Sigma) and the proteolyzed products were separated on SDS-PAGE (10 %). Nucleotide cofactors (1 mM) were pre-incubated with the proteins for 15 min at 37 °C before addition of chymotrypsin. The heat denaturation of proteins was performed by heating them at 95 °C for 10 min. All the reactions were performed in 1X buffer A. Protein bands were detected by staining with Coomassie Brilliant Blue.

[1] = Thermal denaturation monitored by CD at 222 nm; assay type: physicochemical; conditions: for temperature of 50 % unfolding: 25–80 °C; for thermal stability compared to the other variants: higher temperatures
Method: as §1
Freshly prepared proteins were dialyzed twice in buffer B for 4–6 h with at least two changes of the buffer. Far-UV CD spectra of proteins (1 μM) were obtained using a Jasco-815 spectropolarimeter equipped with a Peltier stage (Japan Spectroscopic Co., Japan) at 25 °C. The spectra were recorded between 200–300 nm with 20 mdeg sensitivity at a scan speed of 50 nm using 2 mm path length cuvette with a bandwidth of 2 nm. Control titrations were performed and all the CD spectra were corrected by subtracting control spectra. Thermal denaturation of the proteins was monitored at single wavelength (222 nm) by increasing temperature from 25 °C-80 °C. The percentage of unfolded protein was calculated by considering the protein at 25 °C as 100 % folded.

[2] = ATPase assay of HpMutS2 and mutants (TLC, ATP [γ-32P] tracer); assay type: biochemical; conditions: for kcat value, fold reduced compared to the wild-type protein / V max / k cat: ATP hydrolysis; for V max / k cat: Mg2+ 5 mM, 37 °C, Michaelis-Menten analysis; for Km value, fold higher compared to the wild-type protein: for ATP; for effect of DNA on ATPase activity: 1 μM
From the text: Fig. 1 a Schematic representation of HpMutS2 variants used in this study. Walker-A and Walker-B motifs of HpMutS2 were identified by multiple sequence alignment of MutS2 proteins from different bacteria using Clustal Omega (http://www.ebi.ac.uk/Tools/msa/clustalo/). The mutations in the walker-A and Walker-B motifs were introduced using site directed mutagenesis. The mutated amino acids are highlighted in red. All the proteins were C-terminally His6-tagged. The LDLK motif and Smr domain are conserved nuclease sites of HpMutS2. b Effect of DNA substrates on ATPase activity of HpMutS2. HpMutS2 (45 nM) was incubated with increasing concentrations of ATP [0, 10, 20, 40, 60, 80, 100, 200, 400, 600, 800, and 1000 (μM)]. DNA substrates (1 μM) were added separately to the reaction mixtures. After incubation at 37 °C for 30 min the reactions were stopped by EDTA (50 mM) and the products were separated by TLC. ATP [γ-^32P] was used as tracer to monitor the product formation. Reaction velocities were calculated by quantifying the proportion of products formed to un-reacted substrate divided by incubation time TEXT PRINTED IN THE PICTURE: (A) HpMutS2 (1-762): Mol. wt. (kDa): 87.8 | (A) HpMutS2-G338R (1-762): Mol. wt. (kDa): 87.9 | (A) HpMutS2-E413A (1-762): Mol. wt. (kDa): 87.7 | (A) HpMutS2ΔSmr (1-683): Mol. wt. (kDa): 79.3 | (A) HpMutS2ΔSmr-D30A (1-683): Mol. wt. (kDa): 79.2 | (A) HpSmr (684-762): Mol. wt. (kDa): 9.6
To delineate the characteristics of the ATPase activity of HpMutS2, we initially determined the metal ion requirement for ATP hydrolysis by HpMutS2. Purified HpMutS2 was incubated with excess of cold ATP (100 μM) with or without metal ions (5 mM each), and ATP hydrolysis monitored by thin layer chromatography using radiolabeled ATP [γ-^32P] as tracer. […] Based on the above observations, all subsequent ATPase assays were performed in presence of Mg^2+ (5 mM) at 37 °C using the protein concentrations in the linear range of enzymatic activity for 30 min or below.
ATPase activity of HpMutS2 and mutants was carried out in 10 μl of reaction volume containing 1X buffer A (50 mM Tris pH 8.0, 50 mM NaCl, and 1 mM DTT) containing MgCl2 (5 mM), and ATP [γ-^32P] was used as a tracer. A 1:1000 dilution of 25 μC ATP [γ-^32P] (3500 Ci/mmol) was used with indicated amount of the cold ATP in all the assays. All reactions were carried out at 37 °C for indicated time and terminated by the addition of EDTA (50 mM). 1 μl aliquot of each reaction mixture was spotted on a polyethylene cellulose TLC sheets. The reaction components [ATP and inorganic phosphate (Pi)] were separated by thin layer chromatography (TLC) using 0.4 M […] and 0.1 mM EDTA as mobile phase. The dried TLC sheets were visualized by phosphorimaging and quantified using Image Gauge (Version 3.0). The kinetic parameters were determined using the Michaelis–Menten equation by non-linear regression of plot of rate of product formation versus substrate concentration using GraphPad Prism 5 software. Reaction velocities were calculated by quantifying the proportion of products formed to un-reacted substrate divided by incubation time. To determine the effect of DNA on ATPase activity 1 μM of DNA substrates were added separately to the reaction mixture.

[3] = comparison with literature value

Molecule | effect of nucleotide pre-incubation on proteolysis (chymotrypsin) | susceptibility to proteolysis compared to the wild-type protein (chymotrypsin) | temperature of 50 % unfolding [1] | thermal stability compared to the other variants [1] | kcat value, fold reduced compared to the wild-type protein [2] | V max [2] [µM/min] | k cat [2] [s⁻¹] | Km value, fold higher compared to the wild-type protein [2] | effect of DNA on ATPase activity ([2]; 3′- or 5′-overhangs) | Km value, fold higher compared to T. thermophilus MutS1 [2, 3] | Km value, fold higher compared to Thermus thermophilus MutS2 (TtMutS2) [2, 3] | kcat value, fold higher compared to T. thermophilus MutS1 [2, 3] | kcat value, fold higher compared to Thermus thermophilus MutS2 (TtMutS2) [2, 3] | effect of DNA on ATPase activity ([2]; linear DNA substrates ssDNA, dsDNA)
B1 | only a slight effect | much more resistant | ~ 50 °C | more unstable | ~ 10 fold | 0.19 ± 0.03 | 0.0703 ± 0.011 | comparable | – | – | – | – | – | –
B2 | proteolysis was significantly reduced | – | ~ 50 °C | – | – | 1.88 ± 0.13 | 0.6962 ± 0.048 | – | negligible increases | ~ 8 fold | ~ 9 fold | ~ 4.5 fold | ~ 20 fold | no effect
B3 | only a slight effect | slightly more susceptible to proteolysis | – | more stable at up to 80 °C | ~ 3 fold | 0.64 ± 0.15 | 0.237 ± 0.0555 | ~ 2.3 fold | – | – | – | – | – | –
